One assay has as its target T1, BSA (UniProt P02769 25-607).
T1 construct: Control protein in the input-phage ELISA; also called bovine serum albumin
Description: phage ELISA, absorbance at 450 nm. (In general: In an ELISA, binding on a coated surface is turned into a signal by an enzyme label.)

The target of assay [1] is T2, VEGF121 (human vascular endothelial growth factor) (human, UniProt P15692-9 27-147).
T2 construct: Immobilised on a CM5 chip by EDC/NHS for SPR and coated on plates for phage ELISA; also called VEGF-Trx cut with thrombin
T2 sequence (looked up): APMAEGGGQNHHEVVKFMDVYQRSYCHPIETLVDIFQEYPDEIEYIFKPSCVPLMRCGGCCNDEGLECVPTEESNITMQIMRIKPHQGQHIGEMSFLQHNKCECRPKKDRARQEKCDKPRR
Description: phage ELISA, absorbance at 450 nm.

In a further assay the target is T3, Human serum albumin (human, UniProt P02768 25-609).
T3 construct: Bought protein; also called HSA; HAS
T3 sequence (P02768 25-609 limits assumed): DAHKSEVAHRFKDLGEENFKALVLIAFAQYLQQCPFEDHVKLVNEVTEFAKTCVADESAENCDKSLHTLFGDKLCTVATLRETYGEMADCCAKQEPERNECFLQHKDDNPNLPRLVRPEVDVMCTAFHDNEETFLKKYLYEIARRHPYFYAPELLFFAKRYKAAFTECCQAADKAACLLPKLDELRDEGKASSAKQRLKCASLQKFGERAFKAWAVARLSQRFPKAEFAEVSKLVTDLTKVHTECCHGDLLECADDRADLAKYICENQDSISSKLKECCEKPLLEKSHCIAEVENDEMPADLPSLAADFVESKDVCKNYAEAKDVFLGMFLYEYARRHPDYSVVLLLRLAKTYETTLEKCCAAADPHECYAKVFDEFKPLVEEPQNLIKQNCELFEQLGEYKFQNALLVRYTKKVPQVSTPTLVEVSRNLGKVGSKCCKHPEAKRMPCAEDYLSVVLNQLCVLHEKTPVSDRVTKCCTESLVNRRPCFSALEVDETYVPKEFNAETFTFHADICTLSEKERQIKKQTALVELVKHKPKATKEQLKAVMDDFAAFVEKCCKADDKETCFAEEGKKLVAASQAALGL
Description: phage ELISA, absorbance at 450 nm.

The target in the next assay is T4, Streptavidin (UniProt P22629 37-163, limits assumed).
T4 construct: Control protein in the input-phage ELISA; also called straptavidin
T4 sequence (P22629 37-163 limits assumed): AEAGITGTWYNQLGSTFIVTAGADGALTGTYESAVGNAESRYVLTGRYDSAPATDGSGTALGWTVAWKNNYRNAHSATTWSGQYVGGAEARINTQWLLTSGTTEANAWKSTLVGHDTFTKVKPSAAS
Description: phage ELISA, absorbance at 450 nm.

The target in assay [2] is T5, STAT3 protein (UniProt P40763 1-770, limits assumed). The assay can be described thus: phage ELISA of single clones on STAT3 against streptavidin. As to the method:
STAT3 (10 μg/ml), BSA (10 μg/ml) and streptavidin (10 μg/ml) each was added to 30 wells (50 μl per well) in a 96-well ELISA plate and then kept to stand at 4° C. overnight. Next day, all wells were washed with 0.1% PBST three times, and blocked at room temperature for 2 hrs using 2% skim milk diluted with PBS. Then, the solution was removed and the plate was washed with 0.1% PBST three times. Phage peptide solution (100 μl) amplified from each clone was aliquoted to STAT3-bound wells and streptavidin protein-bound wells and kept to stand at 27° C. for 1.5 hrs. After washing with 0.1% PBST 10 times, HRP-conjugated anti-M13 antibodies (1:1,000 dilution; GE Healthcare) were added to each well and incubated at 27° C. for 1 hr. After washing with 0.1% PBST 5 times, 100 μl TMB was divided into each well to induce colorimetric reaction, followed by stopping the reaction adding 100 μl of 1 M HCl. The absorbance was measured at 450 nm to select phages which had the absorbance above 20-fold higher than BSA. XL1 cells were infected with these phages and spread in plate to produce 100-200 of plaques. […]
The phages recovered from the 4th biopanning step having the highest O/I ratio in each library were isolated as plaques. […] The DNA 10 sequencing was performed for 6 clones showing the absorbance value above 2-fold higher than streptavidin. […]

Assay [3] has as its target T5, STAT3 protein. The assay can be described thus: SPR (Biacore X), STAT3 (4000 RU) on CM5 chip, peptide at 2, 5 and 7.5 µM. As to the method:
The peptide sequences were identified by DNA sequencing. Two peptides were synthesized (BPB1: QAYYIP […] LWGPEF; BPB2: HGFQWP […] AYQFLK).
The affinity of the bipodal-peptide binder (BPB1: QAYYIP […] LWGPEF) was measured using SPR (Biacore X). The STAT3 protein (4000 RU) was fixed onto the CM5 chip. The concentrations of 2 μM, 5 μM and 7.5 μM the bipodal-peptide binder were used.

Bounds are passed on as bounds.

T5 sequence (P40763 whole entry): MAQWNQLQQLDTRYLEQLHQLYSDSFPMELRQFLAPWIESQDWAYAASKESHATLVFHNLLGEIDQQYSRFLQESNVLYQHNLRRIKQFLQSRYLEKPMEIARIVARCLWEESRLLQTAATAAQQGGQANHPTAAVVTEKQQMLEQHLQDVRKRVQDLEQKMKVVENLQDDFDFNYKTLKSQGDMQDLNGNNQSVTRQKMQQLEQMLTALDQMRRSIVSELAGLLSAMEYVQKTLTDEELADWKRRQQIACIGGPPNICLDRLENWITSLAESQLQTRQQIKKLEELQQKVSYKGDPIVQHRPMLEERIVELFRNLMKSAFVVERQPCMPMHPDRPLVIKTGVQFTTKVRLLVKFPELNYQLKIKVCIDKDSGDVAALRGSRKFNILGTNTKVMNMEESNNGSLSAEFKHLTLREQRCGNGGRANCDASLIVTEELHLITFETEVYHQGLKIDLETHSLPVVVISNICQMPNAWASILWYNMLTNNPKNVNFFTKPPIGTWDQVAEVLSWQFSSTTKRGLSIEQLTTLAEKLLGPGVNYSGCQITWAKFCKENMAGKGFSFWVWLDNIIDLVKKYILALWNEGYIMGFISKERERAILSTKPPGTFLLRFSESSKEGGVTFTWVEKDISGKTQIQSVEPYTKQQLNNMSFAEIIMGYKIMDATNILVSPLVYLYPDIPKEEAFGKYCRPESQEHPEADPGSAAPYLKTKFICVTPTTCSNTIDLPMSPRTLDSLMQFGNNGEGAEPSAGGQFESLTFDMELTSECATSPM
T1 sequence (P02769 25-607 limits assumed): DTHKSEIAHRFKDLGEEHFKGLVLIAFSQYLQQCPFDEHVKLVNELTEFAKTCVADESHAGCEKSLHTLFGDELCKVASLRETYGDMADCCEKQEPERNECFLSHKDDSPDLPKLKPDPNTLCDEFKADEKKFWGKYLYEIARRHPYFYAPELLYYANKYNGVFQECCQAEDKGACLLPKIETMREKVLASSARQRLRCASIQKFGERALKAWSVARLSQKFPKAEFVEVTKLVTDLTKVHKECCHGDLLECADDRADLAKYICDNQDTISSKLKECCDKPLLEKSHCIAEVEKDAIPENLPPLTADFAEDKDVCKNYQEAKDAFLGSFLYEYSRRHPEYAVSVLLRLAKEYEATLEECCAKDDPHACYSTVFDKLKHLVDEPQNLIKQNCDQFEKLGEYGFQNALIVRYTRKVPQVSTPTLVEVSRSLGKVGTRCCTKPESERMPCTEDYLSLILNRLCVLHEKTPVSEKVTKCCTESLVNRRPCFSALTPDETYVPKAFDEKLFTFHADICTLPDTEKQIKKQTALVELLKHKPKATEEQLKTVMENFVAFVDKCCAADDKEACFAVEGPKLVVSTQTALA

A word on the Kd: it is the equilibrium constant for the complex coming apart. Turning to QAYYIPGSWTWENGKWTWKGLWGPEF (also called BPB1; Peptidel) [STAT3-specific bipodal-peptide binder Peptide 1], the binding result (with BSA; in assay [1]; with Human serum albumin; in the assay with Streptavidin) was “no binding” in each case. Besides, in the assay with STAT3 protein [2], the “fold absorbance over streptavidin” value was greater than 2 fold. This molecule displayed a Kd with STAT3 protein [3] of roughly 1700 nM.

For the origin of these results see patent publication US20120309934A1 (GWANGJU INSTITUTE OF SCIENCE AND TECHNOLOGY, published 2012).
